Assay results as given in the supplement of paper PMC7877785.
± gives the uncertainty stated by the source.

Experiment: self-splicing fitness, log relative to wild type (ln ratio); higher = more splicing; Tetrahymena group I intron in knt gene, E. coli kanamycin selection, DiMSum; sequences stand for … in CUCUCU…GGAGGGAAAAGUUAUCAGGCAUGCACCUGGUAGCUAGUCUUUAAACCAAUAGAUUGCAUCGGUUUAAAAGGCAAGACCGUCAAAUUGCGGGAAAGGGGUCAACAGCCGUUCAGUACCAAGUCUCAGGGGAAACUUUGAGAUGGCCUUGCAAAGGGUAUGGUAAUAAGCUGACGGACAUGGUCCUAACCACGCAGCCAAGUCCUAAGUCAACAGAUCUUCUGUUGAUAUGGAUGCAGUUCACAGACUAAAUGUCGGUCGGGGAAGAUGUAUUCUUCUCAUAAGAUAUAGUCGGACCUCUCCUUAAUGGGAGCUAGCGGAUGAAGUGAUGCAACACUGGAGCCGCUGGGAACUAAUUUGUAUGCGAAAGUAUAUUGAUUAGUUUUGGAGUACUCGUGGUCG
In short: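 Pooled colonies went to amplicon sequencing on an Illumina HiSeq 2500 after six replicate transformations. The plates were LB agar with 100 μg/mL carbenicillin, 50 μM IPTG and 0.2% rhamnose, with or without 25 μg/mL kanamycin, incubated overnight at 37°C or 30°C. The E. coli BL21(DE3) library had all eight P1ex-region intron nucleotides randomised, the intron placed in the knt kanamycin-resistance gene on pET-22b(+). DiMSum fitness is the error-weighted combination of replicate fold changes, kanamycin against none, normalised to wild type.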

| Sequence | self-splicing fitness (ln) (30 °C) | self-splicing fitness (ln) (37 °C) |
| --- | --- | --- |
| UACCAGCAAUAUUACGGUGC | -3.21 ± 0.12 | -2.64 ± 0.2 |
| CAGCAGCAAUAUUACGGUAA | -1.97 ± 0.12 | -1.41 ± 0.12 |
| AUAAAGCAAUAUUACGAUGU | -0.252 ± 0.072 | 0.28 ± 0.099 |
| AUUCAGCAAUAUUACGGGCG | -0.695 ± 0.1 | -0.0814 ± 0.12 |
| GCUGAGCAAUAUUACGCGAC | -3.36 ± 0.32 | -1 ± 0.3 |
| GGUCAGCAAUAUUACGGCCA | -2.33 ± 0.19 | -0.589 ± 0.17 |
| CUUAAGCAAUAUUACGAAAG | -2.9 ± 0.22 | -1.75 ± 0.18 |
| AAAUAGCAAUAUUACGCCGU | -1.37 ± 0.21 | 0.028 ± 0.18 |
| GCAAAGCAAUAUUACGUGGC | -3.38 ± 0.31 | -2.57 ± 0.24 |
| AUAAAGCAAUAUUACGACGG | -1.66 ± 0.096 | -0.375 ± 0.12 |
| AAAUAGCAAUAUUACGGAUU | -0.612 ± 0.074 | -1.1 ± 0.09 |
| UCCCAGCAAUAUUACGAUUA | -1.71 ± 0.12 | -1.36 ± 0.14 |
| GUCUAGCAAUAUUACGUCGG | -3.43 ± 0.2 | -2.51 ± 0.2 |
| UCCCAGCAAUAUUACGCUUU | -2.7 ± 0.16 | -2 ± 0.15 |
| CCGUAGCAAUAUUACGCGGC | -2.94 ± 0.19 | -2.51 ± 0.27 |
| CCAGAGCAAUAUUACGUCGA | -3.92 ± 0.18 | -3.12 ± 0.17 |
| GACAAGCAAUAUUACGGGCU | -1.63 ± 0.087 | -1.39 ± 0.097 |

| Sequence | self-splicing fitness (ln) (30 °C) | self-splicing fitness (ln) (37 °C) |
| --- | --- | --- |
| AUGAAGCAAUAUUACGGCUU | -4.22 ± 0.24 | -3.03 ± 0.21 |
| GAUCAGCAAUAUUACGUGCG | -1.16 ± 0.086 | -0.336 ± 0.093 |
| UAUAAGCAAUAUUACGUCUC |  | -2.22 ± 0.35 |
| CCUCAGCAAUAUUACGAUAU | -4.25 ± 0.25 | -0.929 ± 0.15 |
| UGAAAGCAAUAUUACGUAUU | -3.21 ± 0.13 | -2.19 ± 0.12 |
| UGUCAGCAAUAUUACGUGAC | -2.8 ± 0.21 | -2.81 ± 0.26 |
| UCCUAGCAAUAUUACGACCA | -0.552 ± 0.22 | -2.28 ± 0.35 |
| AUGGAGCAAUAUUACGAACA | -1.55 ± 0.38 |  |
| UAUUAGCAAUAUUACGGGAG | -3.18 ± 0.16 | -2.16 ± 0.12 |
| AAUUAGCAAUAUUACGGGGG | -2.91 ± 0.15 | -2.9 ± 0.27 |
| GUUAAGCAAUAUUACGCGCC | -2.44 ± 0.2 | -1.56 ± 0.16 |
| GUAUAGCAAUAUUACGUAUA | -3.48 ± 0.41 | -1.8 ± 0.25 |
| GCUUAGCAAUAUUACGCAAG |  | -2.44 ± 0.34 |
| UGCAAGCAAUAUUACGGAAG | -3.38 ± 0.14 | -1.44 ± 0.1 |
| UUUCAGCAAUAUUACGACCA | -0.495 ± 0.19 | -1.36 ± 0.23 |
| UCACAGCAAUAUUACGAUUC | -3.61 ± 0.16 | -3.05 ± 0.18 |
| UUUCAGCAAUAUUACGUCCA | -0.967 ± 0.14 | 0.0389 ± 0.16 |
